Measured values published in article PMC7794297.

Substrate: OC[C@H]1O[C@@H](O)[C@H](O)[C@@H](O)[C@@H]1O
Test: GOx activity assay, glucose oxidase-horseradish peroxidase coupled system with o-dianisidine
Assay type: biochemical, Aspergillus niger
Conditions: other: control, glucose conversion; 37.0 °C

B1: glucose oxidase (GOx) (Aspergillus niger) (protein)
chain: LPHYIRSNGIEASLLTDPKDVSGRTVDYIIAGGGLTGLTTAARLTENPNISVLVIESGSYESDRGPIIEDLNAYGDIFGSSVDHAYETVELATNNQTALIRSGNGLGGSTLVNGGTWTRPHKAQVDSWETVFGNEGWNWDNVAAYSLQAERARAPNAKQIAAGHYFNASCHGVNGTVHAGPRDTGDDYSPIVKALMSAVEDRGVPTKKDFGCGDPHGVSMFPNTLHEDQVRSDAAREWLLPNYQRPNLQVLTGQYVGKVLLSQNGTTPRAVGVEFGTHKGNTHNVYAKHEVLLAAGSAVSPTILEYSGIGMKSILEPLGIDTVVDLPVGLNLQDQTTATVRSRITSAGAGQGQAAWFATFNETFGDYSEKAHELLNTKLEQWAEEAVARGGFHNTTALLIQYENYRDWIVNHNVAYSELFLDTAGVASFDVWDLLPFTRGYVHILDKDPYLHHFAYDPQYFLNELDLLGQAAATQLARNISNSGAMQTYFAGETIPGDNLAYDADLSAWTEYIPYHFRPNYHGVGTCSMMPKEMGGVVDNAARVYGVQGLRVIDGSIPPTQMSSHVMTVFYAMALKISDAILEDYASMQ
notes: purchased Sigma Aldrich
B1 was tested, and the Km was 15 ± 2 mM and the kcat was 0.00233 ± 0.00017 s⁻¹.
